Assay results taken from publication PMC4164303 (Science (New York, N.Y.), 2014).

Target: the molecule itself
Assay: AUC

B1: EC1–2 of mouse E-cadherin (domain or fragment)
chain: DWVIPPISCPENEKGEFPKNLVQIKSNRDKETKVFYSITGQGADKPPVGVFIIERETGWLKVTQPLDREAIAKYILYSHAVSSNGEAVEDPMEIVITVTDQNDNRPEFTQEVFEGSVAEGAVPGTSVMKVSATDADDDVNTYNAAIAYTIVSQDPELPHKNMFTVNRDTGVISVLTSGLDRESYPTYTLVVQAADLQGEGLSTTAKAVITVKD
B1 showed a Kd of about 175 µM.
